PMC8590011, “WRN helicase safeguards deprotected replication forks in BRCA2-mutated cancer cells”

Molecular target: FLAG-WRN (wild type) (UniProt Q14191 1-1432)
Assay: EMSA; 2 mM ATPgS, 5 mM MgCl2; affinity similar to the K577M/E84A mutant; Kd is only in Supp Fig 1e, value not in material; 35 mM Tris-HCl pH 7.5, 20 mM KCl, 5 mM MgCl2, 0.1 mg/ml BSA, 2 mM DTT, 5% glycerol, 2 mM ATPgS, 2 nM DNA, 15 min at RT; 5% 1x TBE native PAGE at 4 C
Conditions: protein: recombinant; tags: N-terminal FLAG (6xHis removed with TEV); label: 5' 32P on oligo B (as described for the CF preparation); four-strand regressed fork: AB partial duplex annealed to CD partial duplex

Sequence of FLAG-WRN (wild type) (Q14191 whole entry): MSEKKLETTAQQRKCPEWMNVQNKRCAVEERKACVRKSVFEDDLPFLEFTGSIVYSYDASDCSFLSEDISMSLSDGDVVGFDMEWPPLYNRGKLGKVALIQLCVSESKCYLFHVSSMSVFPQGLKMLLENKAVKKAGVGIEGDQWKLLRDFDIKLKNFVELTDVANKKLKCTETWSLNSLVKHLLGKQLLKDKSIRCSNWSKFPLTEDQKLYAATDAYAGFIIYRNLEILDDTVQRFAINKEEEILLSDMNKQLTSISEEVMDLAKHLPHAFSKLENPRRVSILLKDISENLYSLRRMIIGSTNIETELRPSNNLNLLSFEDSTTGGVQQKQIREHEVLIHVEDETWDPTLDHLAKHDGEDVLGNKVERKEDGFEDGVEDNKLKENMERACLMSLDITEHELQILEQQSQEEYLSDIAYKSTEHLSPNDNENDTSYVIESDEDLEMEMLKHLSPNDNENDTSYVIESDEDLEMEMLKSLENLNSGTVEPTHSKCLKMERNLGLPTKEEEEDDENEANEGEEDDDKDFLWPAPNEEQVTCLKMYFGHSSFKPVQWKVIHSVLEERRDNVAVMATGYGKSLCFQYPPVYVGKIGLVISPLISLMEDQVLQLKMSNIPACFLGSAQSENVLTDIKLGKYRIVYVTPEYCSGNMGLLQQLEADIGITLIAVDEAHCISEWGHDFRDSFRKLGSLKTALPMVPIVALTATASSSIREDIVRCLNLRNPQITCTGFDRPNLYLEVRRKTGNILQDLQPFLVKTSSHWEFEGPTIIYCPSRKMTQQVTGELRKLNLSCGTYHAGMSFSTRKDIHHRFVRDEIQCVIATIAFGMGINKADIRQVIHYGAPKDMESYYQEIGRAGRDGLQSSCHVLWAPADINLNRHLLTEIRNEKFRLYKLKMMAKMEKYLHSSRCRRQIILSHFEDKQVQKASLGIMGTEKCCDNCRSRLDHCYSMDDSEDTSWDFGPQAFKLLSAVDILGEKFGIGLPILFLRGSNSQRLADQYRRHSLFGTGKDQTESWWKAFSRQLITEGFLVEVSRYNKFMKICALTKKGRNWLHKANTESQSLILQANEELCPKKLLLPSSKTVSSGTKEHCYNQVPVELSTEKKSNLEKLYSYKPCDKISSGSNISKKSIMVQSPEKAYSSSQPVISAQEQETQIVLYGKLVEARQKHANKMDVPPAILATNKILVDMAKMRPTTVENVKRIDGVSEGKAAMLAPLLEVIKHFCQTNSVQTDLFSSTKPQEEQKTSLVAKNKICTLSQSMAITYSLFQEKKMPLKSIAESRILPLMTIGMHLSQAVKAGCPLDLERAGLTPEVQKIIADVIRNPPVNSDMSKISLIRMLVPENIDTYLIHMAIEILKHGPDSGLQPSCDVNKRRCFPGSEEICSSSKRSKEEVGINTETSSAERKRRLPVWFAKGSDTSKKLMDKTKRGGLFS

B1: chicken-foot (CF) reversed fork substrate, oligos A+B+C+D (structured_DNA)
DNA 1: CTTTAGCTGCATATTTACAACATGTTGACCTTCAGTACAATCTGCTCTGATGCCGCATAGTGTCATGCCAGAGCTTTGTAC
DNA 2: CGGGTGTCGGGGCGCATGACACTATGCGGCATCAGAGCAGATTGTACTGAAGGTCAACATGTTGTAAATATGCAGCTAAAG
DNA 3: GTACAAAGCTCTGGCATGATACTATGCGGCATCAGAGCAGATT
DNA 4: TCAGTACAATCTGCTCTGATGCCGCATAGTATCATGCGCCCCGACACCCG
modifications: iMe-isodC at position 38 of oligo A (written as C)
Q: Does B1 bind?
A: Result: binds
